# Data from IntAct's records for PubMed 22536782.
# B1: GRB2-associated-binding protein 1 (Homo sapiens), Q13480 (parent)
# chain: MSGGEVVCSGWLRKSPPEKKLKRYAWKRRWFVLRSGRLTGDPDVLEYYKNDHAKKPIRIIDLNLCQQVDAGLTFNKKEFENSYIFDINTIDRIFYLVADSEEEMNKWVRCICDICGFNPTEEDPVKPPGSSLQAPADLPLAINTAPPSTQADSSSATLPPPYQLINVPPHLETLGIQEDPQDYLLLINCQSKKPEPTRTHADSAKSTSSETDCNDNVPSHKNPASSQSKHGMNGFFQQQMIYDSPPSRAPSASVDSSLYNLPRSYSHDVLPKVSPSSTEADGELYVFNTPSGTSSVETQMRHVSISYDIPPTPGNTYQIPRTFPEGTLGQTSKLDTIPDIPPPRPPKPHPAHDRSPVETCSIPRTASDTDSSYCIPTAGMSPSRSNTISTVDLNKLRKDASSQDCYDIPRAFPSDRSSSLEGFHNHFKVKNVLTVGSVSSEELDENYVPMNPNSPPRQHSSSFTEPIQEANYVPMTPGTFDFSSFGMQVPPPAHMGFRSSPKTPPRRPVPVADCEPPPVDRNLKPDRKVKPAPLEIKPLPEWEELQAPVRSPITRSFARDSSRFPMSPRPDSVHSTTSSSDSHDSEENYVPMNPNLSSEDPNLFGSNSLDGGSSPMIKPKGDKQVEYLDLDLDSGKSTPPRKQKSSGSGSSVADERVDYVVVDQQKTLALKSTREAWTDGRQSTESETPAKSVK
# Variants of: B1
# Conditions: with grb2_human GRB2, P62993
row,effect of a mutation on the interaction,Variant
1,decreasing interaction,L523A
2,decreasing interaction,R521A
3,decreasing interaction,N522A
4,decreasing interaction,K524A

# Variants of: B1
# Conditions: with grb2_human GRB2, P62993
# Remark: another data set of the same source
row,effect of a mutation on the interaction,Variant
1,increasing interaction,R344A
2,increasing interaction,P345A
3,increasing interaction,P346A
4,increasing interaction,K347A
